Test [1] deals with T1, human OX40, histidine-tagged recombinant (human, UniProt P43489 29-214).
T1 construct: OX40, human, recombinant; also called hOX40-His; source: bought: Acro Biosystems (SPR); for the ELISAs the vendor is one of Jackson ImmunoResearch, Sino Biological, Acro Biosystems, R&D Systems
T1 sequence (looked up): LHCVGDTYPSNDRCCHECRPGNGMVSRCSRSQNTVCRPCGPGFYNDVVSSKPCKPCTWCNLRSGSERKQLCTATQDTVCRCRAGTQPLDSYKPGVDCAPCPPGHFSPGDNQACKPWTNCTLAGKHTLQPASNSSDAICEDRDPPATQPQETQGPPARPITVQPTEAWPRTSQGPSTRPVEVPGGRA
The test is described as follows: SPR; BioRAD ProteOn XPR36; His-tagged targets immobilised on Ni-activated HTG chip; analyte in PBS/Tween (0.005%) pH 7.0, 3 min injection, 5 min dissociation, flow 80-100 μl/min. The following applies: both partners purified.

For test [2], the target named is T2, human OX40, histidine-tagged recombinant (human, UniProt P43489 29-214).
T2 chain: T1 sequence (looked up)
Kind of test: SPR. On the technique in general: Surface plasmon resonance follows binding to a sensor surface in real time, without labels.

One molecule from publication PMC6299665 (Journal for Immunotherapy of Cancer, 2018) can be followed below.

B1: recombinant human OX40L-Fc (Fc fusion, UniProt P23510 51-183, looked up)
chain: QVSHRYPRIQSIKVQFTEYKKEKGFILTSQKEDEIMKVQNNSVIINCDGFYLISLKGYFSQEVNISLHYQKDEEPLFQLKKVRSVNSLMVASLTYKDKVYLNVTTDNTSLDDFHVNGGELILIHQNPGEFCVL
notes: OX40L, human, recombinant Fc fusion; The background says in general that in OX40L-Fc proteins the Fc precedes OX40L; also called hOX40L-Fc; Fc-OX40L; source: bought: Acro Biosystems
Consider B1, for which the Kd in test [1] is 9.28 nM. For the same molecule, the off-rate constant (koff) in test [2] stood at 0.00069 s⁻¹.

Usually Kd stands for the equilibrium constant for the complex coming apart. The koff is the first-order rate constant of dissociation.
